# Measurements published in article PMC3159028 (Journal of molecular biology, 2011).
# Where two headings read alike, the source gives them in different places.
# B1: hNudC^1–141, N-terminal fragment of human NudC (dimerization domain) (domain or fragment)
# chain: not shown
# B2: human NudC-like protein (NudCL), full length (natural protein, UniProt Q8IVD9 1-361, looked up)
# chain: METGAAELYDQALLGILQHVGNVQDFLRVLFGFLYRKTDFYRLLRHPSDRMGFPPGAAQALVLQVFKTFDHMARQDDEKRRQELEEKIRRKEEEEAKTVSAAAAEKEPVPVPVQEIEIDSTTELDGHQEVEKVQPPGPVKEMAHGSQEAEAPGAVAGAAEVPREPPILPRIQEQFQKNPDSYNGAVRENYTWSQDYTDLEVRVPVPKHVVKGKQVSVALSSSSIRVAMLEENGERVLMEGKLTHKINTESSLWSLEPGKCVLVNLSKVGEYWWNAILEGEEPIDIDKINKERSMATVDEEEQAVLDRLTFDYHQKLQGKPQSHELKVHEMLKKGWDAEGSPFRGQRFDPAMFNISPGAVQF
# B3: mouse NudC-like 2 protein (NudCL2), full length (natural protein, UniProt Q9CQ48 1-157, looked up)
# chain: MSAPFEERSGVVPCGTPWGQWYQTLEEVFIEVQVPPGTRAQDIQCGLQSRHVALAVGGREILKGKLFDSTIADEGTWTLEDRKMVRIVLTKTKRDAANCWTSLLESEYAADPWVQDQMQRKLTLERFQKENPGFDFSGAEISGNYTKGGPDFSNLEK
# B4: human NudC, full length (NudC^1–331) (natural protein)
# chain: not shown
# What was measured:
# SEC [1] = target: the molecule itself; assay: SEC
# SEC [2] = target: the molecule itself; assay: SEC; remark: listed apart in the source
Protein,stoichiometry N (SEC [1]),stoichiometry N (SEC [2])
B1,2,–
B2,–,2
B3,–,2
B4,–,2
